Consider seven molecules from WO2022034912A1 (dated 2022).

Assay [1] addresses T1, human TRPV2 (transient receptor potential cation channel, subfamily V, member 2) (human, UniProt Q9Y5S1 1-764).
T1 sequence: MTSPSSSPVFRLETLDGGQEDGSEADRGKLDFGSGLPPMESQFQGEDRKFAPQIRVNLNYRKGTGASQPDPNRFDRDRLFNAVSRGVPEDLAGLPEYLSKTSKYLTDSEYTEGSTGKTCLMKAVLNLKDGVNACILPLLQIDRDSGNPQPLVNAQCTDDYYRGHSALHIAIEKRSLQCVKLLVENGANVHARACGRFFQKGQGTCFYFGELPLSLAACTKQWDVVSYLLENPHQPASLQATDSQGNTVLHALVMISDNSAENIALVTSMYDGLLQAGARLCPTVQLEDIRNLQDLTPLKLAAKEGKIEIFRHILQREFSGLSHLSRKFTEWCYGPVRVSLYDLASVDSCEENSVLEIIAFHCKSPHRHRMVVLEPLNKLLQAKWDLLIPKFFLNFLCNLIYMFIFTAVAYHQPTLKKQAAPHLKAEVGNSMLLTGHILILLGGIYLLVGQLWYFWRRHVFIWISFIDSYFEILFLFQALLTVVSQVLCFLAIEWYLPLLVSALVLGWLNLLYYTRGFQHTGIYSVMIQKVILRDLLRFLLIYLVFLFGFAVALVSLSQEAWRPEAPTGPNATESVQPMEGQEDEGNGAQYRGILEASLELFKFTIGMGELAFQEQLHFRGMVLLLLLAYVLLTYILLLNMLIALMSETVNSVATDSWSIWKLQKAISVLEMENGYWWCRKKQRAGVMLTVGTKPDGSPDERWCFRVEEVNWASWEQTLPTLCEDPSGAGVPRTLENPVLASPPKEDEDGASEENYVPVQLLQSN
In words: cell-based or functional assay.

For the next assay, the target named is T2, mouse TRPV2 (mouse, UniProt Q9WTR1 1-756).
T2 construct: whole, on cells; In the Western blot solubilised from the cells; also called mTRPV2; mTRPV2-expressing HEK293 cells
T2 sequence (looked up): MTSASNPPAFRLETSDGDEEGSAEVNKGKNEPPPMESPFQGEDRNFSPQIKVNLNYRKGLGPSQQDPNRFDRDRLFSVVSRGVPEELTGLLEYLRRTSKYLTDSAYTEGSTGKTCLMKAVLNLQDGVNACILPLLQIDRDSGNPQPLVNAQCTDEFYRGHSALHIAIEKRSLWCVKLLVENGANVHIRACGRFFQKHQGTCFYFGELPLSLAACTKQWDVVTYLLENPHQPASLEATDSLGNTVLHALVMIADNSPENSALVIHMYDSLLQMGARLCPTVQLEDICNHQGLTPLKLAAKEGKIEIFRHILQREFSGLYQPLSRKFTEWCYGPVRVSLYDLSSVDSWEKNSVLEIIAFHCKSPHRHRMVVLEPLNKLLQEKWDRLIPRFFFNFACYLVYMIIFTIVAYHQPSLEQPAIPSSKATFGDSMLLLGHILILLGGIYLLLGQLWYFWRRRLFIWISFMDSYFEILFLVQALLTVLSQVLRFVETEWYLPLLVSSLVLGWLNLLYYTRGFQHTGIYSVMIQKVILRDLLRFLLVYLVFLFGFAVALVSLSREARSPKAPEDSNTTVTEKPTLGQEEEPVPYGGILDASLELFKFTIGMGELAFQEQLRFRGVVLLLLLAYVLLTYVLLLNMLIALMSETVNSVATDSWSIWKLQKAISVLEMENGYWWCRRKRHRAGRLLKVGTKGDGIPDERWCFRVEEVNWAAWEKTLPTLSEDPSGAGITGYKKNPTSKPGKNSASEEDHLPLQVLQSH
The experiment in a line: Western blot of solubilised mTRPV2-expressing HEK293 cells. (In western blotting, separated proteins are transferred to a membrane and probed.)

In assay [2] the target is T3, hTRPV2 extracellular domain-biotin (572-609) (human, biotin added with the lysine residue at the C-terminus).
T3 construct: Synthetic polypeptide, analyte in the SPR measurement; also called hTRPV2 extracellular domain (572-609)
T3 peptide: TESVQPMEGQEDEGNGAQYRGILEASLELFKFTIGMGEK
The experiment in a line: SPR (Biacore T200), antibody captured on anti-mouse IgG(Fc), peptide 10-1000 nM as analyte, 1:1 model. On the technique in general: In SPR one partner is held on a chip, and binding of the other changes the refractive index at the surface.

The target of assay [3] is T4, biotinylated hTRPV2 (hTRPV2 full-length expression vector with Myc-Biotinylation-His tag, expressed in HEK293 … (human, UniProt Q9Y5S1 1-764, biotinylated on the tag (Myc-Biotin-His tag))).
T4 construct: also called biotinylated hTRPV2-expressing HEK293 cells; not shown: Myc-Biotinylation-His tag
T4 sequence: T1 sequence
The experiment in a line: flow cytometry on hTRPV2-expressing 293 cells, purified IgG.

Residue numbers refer to the chain shown, from its start.

B1: anti-human TRPV2 IgG antibody mAb002 (02a001) (antibody, V domains shown)
VH: QVQLKQSGPVLVAPSQSLSITCTVSGFSLTSFGIHWVRQPPGKGLEWLGVIWSGGITHYNSALMSRLSISKDNSKSQVFLKMNSLQTDDTAMYYCAKLYSHPHAMDYWGQGTSVTVSS
VL: DIVMTQAAPSVPVTPGESVSISCRSSKSLLHSNGITYLYWFLQRPGQSPQLLIYRMSNLASGVPDRFSASGSGTAFTLRISRVEAEDVGVYYCMQHLEYPLTFGAGTKLELK
notes: Mouse IgG: VH joined to mouse CH1,2,3 and VL to CK, made in CHO-K1 cells, purified on Protein A; also called anti-hTRPV2 antibody (mAb002)
For the molecule B1, the “IC50 of the inhibition of Ca 2+ influx into hTRPV2-expressing HEK293 cells (Cal520 fluorescence, cannabidiol and probenecid stimulation)” value in assay [1] was found to be 8.9 nM. In addition, in the assay with mouse TRPV2, the binding result is reported as “no binding (tested: 500-fold dilution)”. The molecule further returned an equilibrium dissociation constant (Kd) in assay [2] of 19.2 nM.

B2: anti-human TRPV2 IgG antibody mAb001 (01a033) (antibody, V domains shown)
VH: QVQLKESGPDLVQPSQTLSLTCTVSGFSLTTYGVHWVRQPPGKGLEWVGTMGWDGKKYYNSALKSRLSISRDTSKNQVFLKLSSLQTEDTAMYYCTRDGGYTWFAYWGQGTLVTVSA
VL: NIVMTQSPSSLAVSAGEKVTMSCKSSQSLLNSRTRKNYLAWYQQKPGQSPKLLIYWASTRESGVPDRFTGSGSGTDFTLTISSVQAEDLAVYYCKQSYNLFTFGGGTKLEIK
notes: Mouse IgG: VH joined to mouse CH1,2,3 and VL to CK, made in CHO-K1 cells, purified on Protein A; also called anti-hTRPV2 antibody (mAb001)
Turning to B2, binding in assay [2] was put at a Kd of 188 nM. This counts as sub-micromolar.

B3: humanized mAb002 antibody (VH14+VL1) (antibody, V domains shown)
VH: QVQLQESGPGLVKPSQSLSLTCTVSGFSLTSFGIHWIRQPPGKGLEWIGVIWSGGITHYNSALMSRVSISKDTSKNQVFLKLSSVTAADTAMYYCAKLYSHPHAMDYWGQGTLVTVSS
VL: DIVMTQSPLSLPVTPGEPASISCRSSKSLLHSNGITYLYWYLQKPGQSPQLLIYRMSNLASGVPDRFSGSGSGTDFTLKISRVEAEDVGVYYCMQHLEYPLTFGGGTKLEIK
notes: Full-length human IgG made in Expi293F cells
On to B3, for which the binding result in assay [3] is recorded as “binds”.

B4: humanized mAb002 antibody (VH15+VL1) (antibody, V domains shown)
VH: B3 VH with F79S
VL: B3 VL
notes: as for B3
In the case of B4, the binding result in assay [3] is reported as “binds”.

B5: humanized mAb002 antibody (VH13+VL1) (antibody, V domains shown)
VH: B3 VH with Q5K, E6Q, K13A, L20I, V67L
VL: B3 VL
notes: as for B3
On to B5, for which the binding result in assay [3] was “binds”.

B6: humanized mAb002 antibody (VH12+VL1) (antibody, V domains shown)
VH: B3 VH with T73N, L82M, S83N
VL: B3 VL
notes: as for B3
On to B6, for which the binding result in assay [3] is reported as “binds”.

B7: humanized mAb002 antibody (VH16+VL1) (antibody, V domains shown)
VH: B3 VH with K13A, S17T
VL: B3 VL
notes: as for B3
Consider B7, for which the binding result in assay [3] was “binds”.

By Kd is commonly meant the equilibrium constant for the complex coming apart. A low value points to tighter binding.
